Source: patent US20230374150A1 (Memorial Sloan Kettering, published 2023)

Columns and labels:
Human PSMA antigen [1] = molecular target: T1, Human PSMA antigen (human, UniProt Q04609 44-750, limits assumed); experiment: SPR (Biacore), 37 C, antibody over immobilized PSMA
T1 construct: This is the antigen immobilised on the Biacore chip; also called FOLH1_HUMAN
Text: The calculated kinetic parameters derived from SPR are shown in FIG. 4C, showing distinct differences in affinities when compared to the chimeric and the original mouse antibody J591. Increased affinity of anti-PSMA antibodies should translate into higher potency, while lower affinity anti-PSMA antibodies into lower toxicity. This affinity modulation is achieved without altering the CDR sequences. Based on the binding kinetics, the clone having combination of J591_VL-1 and J591_VH-3, which has near identical binding kinetics to those of J591 chimeric antibody, was chosen to build the PSMA-BsAb (BC244) of the present technology. The amino acid sequences of the light chain (SEQ ID NO: 11) and the heavy chain (SEQ ID NO: 12) of the select clone are shown in FIG. 12. Mutation N297A was used to remove glycosylation, and K322A to minimize complement activation.

Human PSMA antigen [2] = molecular target: T1, Human PSMA antigen; experiment: SPR Biacore, immobilised human PSMA, 37 C, 1:1 fit
Protocol: (§1) PSMA-BsAb Biacore Settings. Human PSMA antigen was immobilized directly on Fc2 at 3000 RU, and cynomolgus PSMA (ACRO) on Fc4 at 3000 RU (Blank on Fc1 and Fc3 as controls). Abs were run through the system at 37° C., at concentrations of 250 and 500 nM, with association time 1 min, dissociation time 15 min. Regeneration was performed at 30 mM NaOH. All data were fitted with 1:1 model.

cynomolgus PSMA (ACRO) = molecular target: T2, cynomolgus PSMA (ACRO) (cynomolgus, UniProt A0A2K5VNZ0 44-750); experiment: SPR Biacore, immobilised cynomolgus PSMA, 37 C, 1:1 fit
T2 construct: Immobilised on the Biacore chip
Protocol: as §1

T1 sequence (Q04609 44-750 limits assumed): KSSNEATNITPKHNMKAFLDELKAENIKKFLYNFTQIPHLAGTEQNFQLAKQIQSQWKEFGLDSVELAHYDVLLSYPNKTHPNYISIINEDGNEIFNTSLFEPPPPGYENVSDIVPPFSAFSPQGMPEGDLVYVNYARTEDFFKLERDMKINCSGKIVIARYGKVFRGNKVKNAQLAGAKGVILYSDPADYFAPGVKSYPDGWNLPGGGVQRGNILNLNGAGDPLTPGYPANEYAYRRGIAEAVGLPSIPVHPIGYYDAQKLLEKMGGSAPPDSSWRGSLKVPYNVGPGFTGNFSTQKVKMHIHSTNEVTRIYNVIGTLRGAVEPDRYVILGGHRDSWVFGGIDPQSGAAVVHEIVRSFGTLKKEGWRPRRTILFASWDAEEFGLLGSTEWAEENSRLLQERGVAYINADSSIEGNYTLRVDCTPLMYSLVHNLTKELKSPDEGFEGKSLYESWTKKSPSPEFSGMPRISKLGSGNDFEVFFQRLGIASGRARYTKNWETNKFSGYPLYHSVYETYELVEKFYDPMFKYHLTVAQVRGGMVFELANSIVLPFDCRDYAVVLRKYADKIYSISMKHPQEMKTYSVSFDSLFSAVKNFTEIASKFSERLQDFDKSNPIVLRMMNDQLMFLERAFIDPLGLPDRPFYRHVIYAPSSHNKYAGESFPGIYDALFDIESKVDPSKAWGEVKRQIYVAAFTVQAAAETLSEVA

Row | Binder | Kd (Human PSMA antigen [1]) | fold-change KD relative to chimeric (Human PSMA antigen [1]) | koff (Human PSMA antigen [1]) | kon (Human PSMA antigen [1]) | Kd (Human PSMA antigen [2]) | koff (Human PSMA antigen [2]) | kon (Human PSMA antigen [2]) | t ½ (Human PSMA antigen [2]) | Kd (cynomolgus PSMA (ACRO)) | koff (cynomolgus PSMA (ACRO)) | kon (cynomolgus PSMA (ACRO)) | t ½ (cynomolgus PSMA (ACRO))
1 | huJ591 (J591_VH-2 + J591_VL-1) (antibody, human IgG1, V domains shown, One of the 9 huJ591 versions; Human IgG1 frameworks) VH: QVQLVQSGAEVKKPGASVKVSCKASGYTFTEYTMHWVRQAPGQGLEWMGNINPNNGGTTYNQKFQGRVTMTVDKSISTAYMELSRLRSDDTAVYYCAAGWNFDYWGQGTLVTVSS VL: DIQLTQSPSFLSASVGDRVTITCRASQDVGTALDWYQQKPGKAPKLLIYWASTLHSGVPSRFSGSGSGTEFTLTISSLQPEDFATYYCQQYNSYPLTFGQGTKLEIK | 3.54 nM | 17.2 fold | 0.000176 s⁻¹ | 49700 M⁻¹ s⁻¹ |  |  |  |  |  |  |  | 
2 | huJ591 (J591_VH-3 + J591_VL-3) (antibody, human IgG1, V domains shown, One of the 9 huJ591 versions; Human IgG1 frameworks) VH: QVQLVQSGAEVKKPGASVKVSCKASGYTFTEYTMHWVRQAPGQRLEWMGNINPNNGGTTYSQKFQGRVTITVDKSASTAYMELSSLRSEDTAVYYCAAGWNFDYWGQGTLVTVSS VL: DIVMTQSPSSLSASVGDRVTITCRASQDVGTALDWYQQKPGKAPELLIYWASSLHSGVPSRFRGSGSGTDFTLTISSVQPEDFATYYCQQYNSYPLTFGQGTKLEIK | 11.9 nM | 57.8 fold | 0.00057 s⁻¹ | 47900 M⁻¹ s⁻¹ |  |  |  |  |  |  |  | 
3 | huJ591 (J591_VH-1 + J591_VL-3) (antibody, human IgG1, V domains shown, One of the 9 huJ591 versions; Human IgG1 frameworks) VH: QVQLVQSGAEVKKPGASVKVSCKASGYTFTEYTMHWVRQAPGQGLEWMGNINPNNGGTTYAQKFQGRVTMTRDKSISTAYMELSRLRSDDTAVYYCAAGWNFDYWGQGTLVTVSS VL: DIVMTQSPSSLSASVGDRVTITCRASQDVGTALDWYQQKPGKAPELLIYWASSLHSGVPSRFRGSGSGTDFTLTISSVQPEDFATYYCQQYNSYPLTFGQGTKLEIK | 3.55 nM | 17.2 fold | 0.000285 s⁻¹ | 80500 M⁻¹ s⁻¹ |  |  |  |  |  |  |  | 
4 | huJ591 (J591_VH-2 + J591_VL-2) (antibody, human IgG1, V domains shown, One of the 9 huJ591 versions; Human IgG1 frameworks) VH: QVQLVQSGAEVKKPGASVKVSCKASGYTFTEYTMHWVRQAPGQGLEWMGNINPNNGGTTYNQKFQGRVTMTVDKSISTAYMELSRLRSDDTAVYYCAAGWNFDYWGQGTLVTVSS VL: DIQLTQSPSFLSASVGDRVTITCRASQDVGTALDWYQQKPGKAPKLLIYWASTRHSGVPSRFSGSGSGTEFTLTISSLQPEDFATYYCQQYNSYPLTFGQGTKLEIK | 4.81 nM | 23.3 fold | 0.000286 s⁻¹ | 59400 M⁻¹ s⁻¹ |  |  |  |  |  |  |  | 
5 | huJ591 (J591_VH-1 + J591_VL-2) (antibody, human IgG1, V domains shown, One of the 9 huJ591 versions; Human IgG1 frameworks) VH: QVQLVQSGAEVKKPGASVKVSCKASGYTFTEYTMHWVRQAPGQGLEWMGNINPNNGGTTYAQKFQGRVTMTRDKSISTAYMELSRLRSDDTAVYYCAAGWNFDYWGQGTLVTVSS VL: DIQLTQSPSFLSASVGDRVTITCRASQDVGTALDWYQQKPGKAPKLLIYWASTRHSGVPSRFSGSGSGTEFTLTISSLQPEDFATYYCQQYNSYPLTFGQGTKLEIK | 4.86 nM | 23.6 fold | 0.000379 s⁻¹ | 77900 M⁻¹ s⁻¹ |  |  |  |  |  |  |  | 
6 | humanized anti-PSMAxCD3 BsAb BC243 (H2L3) (bispecific antibody, human IgG1, kappa, N297A, IgG(L)-scFv format, J591_VL-3 + J591_VH-2) light: DIVMTQSPSSLSASVGDRVTITCRASQDVGTALDWYQQKPGKAPELLIYWASSLHSGVPSRFRGSGSGTDFTLTISSVQPEDFATYYCQQYNSYPLTFGQGTKLEIKRTVAAPSVFIFPPSDEQLKSGTASVVCLLNNFYPREAKVQWKVDNALQSGNSQESVTEQDSKDSTYSLSSTLTLSKADYEKHKVYACEVTHQGLSSPVTKSFNRGECTSGGGGSGGGGSGGGGSQVQLVQSGGGVVQPGRSLRLSCKASGYTFTRYTMHWVRQAPGKCLEWIGYINPSRGYTNYNQKFKDRFTISRDNSKNTAFLQMDSLRPEDTGVYFCARYYDDHYSLDYWGQGTPVTVSSGGGGSGGGGSGGGGSGGGGSGGGGSGGGGSDIQMTQSPSSLSASVGDRVTITCSASSSVSYMNWYQQTPGKAPKRWIYDTSKLASGVPSRFSGSGSGTDYTFTISSLQPEDIATYYCQQWSSNPFTFGCGTKLQITR heavy: not shown |  |  |  |  | 1.6 nM | 0.000308 s⁻¹ | 192000 M⁻¹ s⁻¹ | 37.5 min | 3.58 nM | 0.000634 s⁻¹ | 177000 M⁻¹ s⁻¹ | 18.2 min
7 | humanized anti-PSMAxCD3 BsAb BC244a (H2L1) (bispecific antibody, human IgG1, kappa, N297A, IgG(L)-scFv format) light: DIQLTQSPSFLSASVGDRVTITCRASQDVGTALDWYQQKPGKAPKLLIYWASTLHSGVPSRFSGSGSGTEFTLTISSLQPEDFATYYCQQYNSYPLTFGQGTKLEIKRTVAAPSVFIFPPSDEQLKSGTASVVCLLNNFYPREAKVQWKVDNALQSGNSQESVTEQDSKDSTYSLSSTLTLSKADYEKHKVYACEVTHQGLSSPVTKSFNRGECTSGGGGSGGGGSGGGGSQVQLVQSGGGVVQPGRSLRLSCKASGYTFTRYTMHWVRQAPGKCLEWIGYINPSRGYTNYNQKFKDRFTISRDNSKNTAFLQMDSLRPEDTGVYFCARYYDDHYSLDYWGQGTPVTVSSGGGGSGGGGSGGGGSGGGGSGGGGSGGGGSDIQMTQSPSSLSASVGDRVTITCSASSSVSYMNWYQQTPGKAPKRWIYDTSKLASGVPSRFSGSGSGTDYTFTISSLQPEDIATYYCQQWSSNPFTFGCGTKLQITR heavy: not shown |  |  |  |  | 2.91 nM | 0.000444 s⁻¹ | 152000 M⁻¹ s⁻¹ | 26 min | 6.67 nM | 0.000781 s⁻¹ | 117000 M⁻¹ s⁻¹ | 14.8 min
8 | humanized anti-PSMAxCD3 BsAb BC245 (H3L3) (bispecific antibody, human IgG1, kappa, N297A, IgG(L)-scFv format, J591_VL-3 + J591_VH-3) light: DIVMTQSPSSLSASVGDRVTITCRASQDVGTALDWYQQKPGKAPELLIYWASSLHSGVPSRFRGSGSGTDFTLTISSVQPEDFATYYCQQYNSYPLTFGQGTKLEIKRTVAAPSVFIFPPSDEQLKSGTASVVCLLNNFYPREAKVQWKVDNALQSGNSQESVTEQDSKDSTYSLSSTLTLSKADYEKHKVYACEVTHQGLSSPVTKSFNRGECTSGGGGSGGGGSGGGGSQVQLVQSGGGVVQPGRSLRLSCKASGYTFTRYTMHWVRQAPGKCLEWIGYINPSRGYTNYNQKFKDRFTISRDNSKNTAFLQMDSLRPEDTGVYFCARYYDDHYSLDYWGQGTPVTVSSGGGGSGGGGSGGGGSGGGGSGGGGSGGGGSDIQMTQSPSSLSASVGDRVTITCSASSSVSYMNWYQQTPGKAPKRWIYDTSKLASGVPSRFSGSGSGTDYTFTISSLQPEDIATYYCQQWSSNPFTFGCGTKLQITR heavy: not shown |  |  |  |  | 1.06 nM | 0.000159 s⁻¹ | 150000 M⁻¹ s⁻¹ | 72.7 min | 2.49 nM | 0.000324 s⁻¹ | 130000 M⁻¹ s⁻¹ | 35.7 min
9 | murine J591 (antibody, V domains shown, also called original mouse antibody J591; mouse J591) VH: EVQLQQSGPELVKPGTSVRISCKTSGYTFTEYTIHWVKQSHGKSLEWIGNINPNNGGTTYNQKFEDKATLTVDKSSSTAYMELRSLTSEDSAVYYCAAGWNFDYWGQGTTLTVSS VL: DIVMTQSHKFMSTSVGDRVSIICKASQDVGTAVDWYQQKPGQSPKLLIYWASTRHTGVPDRFTGSGSGTDFTLTITNVQSEDLADYFCQQYNSYPLTFGAGTMLDLKR | 6.39 nM | 31 fold | 0.000113 s⁻¹ | 17700 M⁻¹ s⁻¹ |  |  |  |  |  |  |  | 

Continued by falling Kd (Human PSMA antigen [1]), values first:

Row | Kd (Human PSMA antigen [1]) | fold-change KD relative to chimeric (Human PSMA antigen [1]) | koff (Human PSMA antigen [1]) | kon (Human PSMA antigen [1]) | Kd (Human PSMA antigen [2]) | koff (Human PSMA antigen [2]) | kon (Human PSMA antigen [2]) | t ½ (Human PSMA antigen [2]) | Kd (cynomolgus PSMA (ACRO)) | koff (cynomolgus PSMA (ACRO)) | kon (cynomolgus PSMA (ACRO)) | t ½ (cynomolgus PSMA (ACRO)) | Binder
10 | 3.48 nM | 16.9 fold | 0.000211 s⁻¹ | 60600 M⁻¹ s⁻¹ |  |  |  |  |  |  |  |  | huJ591 (J591_VH-2 + J591_VL-3) (antibody, human IgG1, V domains shown, One of the 9 huJ591 versions; Human IgG1 frameworks) VH: QVQLVQSGAEVKKPGASVKVSCKASGYTFTEYTMHWVRQAPGQGLEWMGNINPNNGGTTYNQKFQGRVTMTVDKSISTAYMELSRLRSDDTAVYYCAAGWNFDYWGQGTLVTVSS VL: DIVMTQSPSSLSASVGDRVTITCRASQDVGTALDWYQQKPGKAPELLIYWASSLHSGVPSRFRGSGSGTDFTLTISSVQPEDFATYYCQQYNSYPLTFGQGTKLEIK
11 | 3.32 nM | 16.1 fold | 0.000228 s⁻¹ | 68600 M⁻¹ s⁻¹ |  |  |  |  |  |  |  |  | huJ591 (J591_VH-1 + J591_VL-1) (antibody, human IgG1, V domains shown, One of the 9 huJ591 versions made from three heavy and three light chain designs; Human IgG1 frameworks, expressed in CHO cells) VH: QVQLVQSGAEVKKPGASVKVSCKASGYTFTEYTMHWVRQAPGQGLEWMGNINPNNGGTTYAQKFQGRVTMTRDKSISTAYMELSRLRSDDTAVYYCAAGWNFDYWGQGTLVTVSS VL: DIQLTQSPSFLSASVGDRVTITCRASQDVGTALDWYQQKPGKAPKLLIYWASTLHSGVPSRFSGSGSGTEFTLTISSLQPEDFATYYCQQYNSYPLTFGQGTKLEIK
12 | 2.54 nM | 12.3 fold | 0.000146 s⁻¹ | 57400 M⁻¹ s⁻¹ |  |  |  |  |  |  |  |  | huJ591 (J591_VH-3 + J591_VL-2) (antibody, human IgG1, V domains shown, One of the 9 huJ591 versions; Human IgG1 frameworks) VH: QVQLVQSGAEVKKPGASVKVSCKASGYTFTEYTMHWVRQAPGQRLEWMGNINPNNGGTTYSQKFQGRVTITVDKSASTAYMELSSLRSEDTAVYYCAAGWNFDYWGQGTLVTVSS VL: DIQLTQSPSFLSASVGDRVTITCRASQDVGTALDWYQQKPGKAPKLLIYWASTRHSGVPSRFSGSGSGTEFTLTISSLQPEDFATYYCQQYNSYPLTFGQGTKLEIK
13 | 1.67 nM | 8.1 fold | 9.69e-05 s⁻¹ | 58200 M⁻¹ s⁻¹ |  |  |  |  |  |  |  |  | huJ591 clone having combination of J591_VL-1 and J591_VH-3 (antibody, V domains shown, also called the select clone) VH: QVQLVQSGAEVKKPGASVKVSCKASGYTFTEYTMHWVRQAPGQRLEWMGNINPNNGGTTYSQKFQGRVTITVDKSASTAYMELSSLRSEDTAVYYCAAGWNFDYWGQGTLVTVSS VL: DIQLTQSPSFLSASVGDRVTITCRASQDVGTALDWYQQKPGKAPKLLIYWASTLHSGVPSRFSGSGSGTEFTLTISSLQPEDFATYYCQQYNSYPLTFGQGTKLEIKR
